Experimental data taken from PMC12173945, “Import mechanism of peroxisomal proteins with an N-terminal signal sequence” (Nature Cell Biology, 2025).

Experiments:
yeast PEX7, P39108 = biological target: T1, yeast PEX7, P39108; assay: bead sedimentation (GST pull-down depletion) assay, SDS-PAGE with Coomassie quantification of PEX7 left in the supernatant; conditions: chain shown with the change; 1 µM yeast PEX7; varying GST-PEX39 concentrations; 1 h; 25 °C; parent: 0.60 ± 0.056
T1 chain: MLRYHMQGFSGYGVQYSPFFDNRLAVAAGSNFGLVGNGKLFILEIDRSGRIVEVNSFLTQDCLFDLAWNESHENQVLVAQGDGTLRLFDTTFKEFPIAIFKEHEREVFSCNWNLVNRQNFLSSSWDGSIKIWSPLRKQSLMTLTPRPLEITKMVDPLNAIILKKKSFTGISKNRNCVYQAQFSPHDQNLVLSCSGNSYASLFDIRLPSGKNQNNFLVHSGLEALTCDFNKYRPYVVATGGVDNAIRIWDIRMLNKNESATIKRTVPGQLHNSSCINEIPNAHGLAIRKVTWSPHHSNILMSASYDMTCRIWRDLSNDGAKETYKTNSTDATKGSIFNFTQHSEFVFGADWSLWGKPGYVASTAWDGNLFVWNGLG

[1] = test system: YG hydrogel (wild-type YG-domain polypeptide of PEX13); assay: YG hydrogel permeation assay, wild-type hydrogel (Fig. 2, Fig. 3g, Extended Data Fig. 9d); conditions: wild-type hydrogel
Protocol: A solution of the purified wild-type YG-domain polypeptide (or the variant lacking the KPWE motif) was concentrated to 2 mM in 50 mM HEPES·NaOH pH 7.8 at RT, 2 M urea and 2 mM TCEP. Aliquots of 2 µl were then spotted on the bottom of multiple wells of a 96-well glass-bottomed plate (Cellvis, P96-1.5H-N), which was then sealed with a gas-impermeable AlumaSeal II film (Hampton Research, HR8-069) to prevent desiccation and incubated at RT for 24 h. Before each assay, the resulting gels were equilibrated overnight at RT in a 100-fold excess of Assay Buffer (25 mM HEPES·NaOH pH 7.8 at RT, 150 mM NaCl and 1 mM TCEP). A 0.5 µM solution of fluorescently labelled protein in Assay Buffer was then added to the samples, with or without additional components at the concentrations indicated in the text, and incubated at RT. Gels were imaged at the times indicated in the text using a Nikon A1R point-scanning confocal system consisting of an inverted Nikon Eclipse Ti microscope and a Nikon ×20 0.75 NA Plan Apo air objective. The objective was centred on the gel edge and focus was maintained 5 µm above the glass surface using the Nikon Perfect Focus System. Fluorescence was excited through a 405/488/561/647 quad-band dichroic (Chroma), using a 488-nm solid-state laser (Coherent) and a galvano scanner. A 50-nm emission band was collected on a gallium arsenide phosphide detector, using an ET525/50m (525 ± 25 nm) single-band bandpass filter (Chroma) and a pinhole dilated to 0.9 Airy units. Images were acquired using the Nikon NIS-Elements software with a pixel size of 1 µm and a 12-bit digitizer. Imaging parameters were configured to maximize the SNR while avoiding saturation. All samples intended to be compared were imaged using identical acquisition settings.
For the YG hydrogel permeation assay, images were first oriented such that each gel edge faced the same direction. Fluorescence profiles across the buffer–gel interface were then generated by centering a 60 × 300 µm rectangular area on the gel edge and then measuring the mean fluorescence at each position within this selection. To express the resulting values in terms of fold enrichment, the fluorescence at each position along the selection was normalized to the average fluorescence in the buffer and plotted in terms of the distance from the gel edge.
To calculate permeation rates through the YG hydrogel, a 60 × 300 µm rectangular area was first centred on the gel edge. The resulting region was then thresholded to demarcate the permeation zone (that is, the distance traversed by the fluorescent species) from the buffer and non-permeated part of the gel. The width of the area above the threshold was then measured and plotted as a function of time. A linear fit to the data yielded the permeation rate.

[2] = biological target: T2, yeast PEX7 fused at the C terminus to GFP (PEX7–GFP) (yeast (S. cerevisiae), UniProt P39108 1-375); assay: YG hydrogel release assay (confocal microscopy); hydrogels equilibrated 3 h at RT with 0.5 µM PEX7–GFP or PEX5–GFP, with or without PTS2 peptide and receptor; PEX39 then spiked in and gels imaged every 2 min for 1 h; conditions: both partners purified
T2 construct: PEX7, yeast (S. cerevisiae); not shown: GST, N-terminal, cleaved; GFP, C-terminal, kept
T2 sequence (looked up): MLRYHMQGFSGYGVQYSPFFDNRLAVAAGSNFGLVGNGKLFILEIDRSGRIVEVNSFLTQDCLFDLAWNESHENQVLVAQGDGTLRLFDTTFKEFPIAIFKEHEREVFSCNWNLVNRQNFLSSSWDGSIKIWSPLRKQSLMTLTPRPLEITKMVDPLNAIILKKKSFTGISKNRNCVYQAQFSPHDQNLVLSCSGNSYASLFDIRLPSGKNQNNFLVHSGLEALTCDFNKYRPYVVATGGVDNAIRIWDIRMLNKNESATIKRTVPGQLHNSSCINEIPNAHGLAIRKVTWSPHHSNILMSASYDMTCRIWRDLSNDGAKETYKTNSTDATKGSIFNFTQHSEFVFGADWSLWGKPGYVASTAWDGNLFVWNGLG

[3] = biological target: T3, GST-tagged yeast PEX7 (GST–PEX7) (yeast (S. cerevisiae), UniProt P39108 1-375); assay: bead-binding assay (fluorescence on beads by spinning-disk confocal microscopy); GST-tagged protein on glutathione beads; GFP-fused partner in solution (1 µM each in Extended Data Fig. 9a); 1 h, RT; conditions: both partners purified
T3 construct: PEX7, yeast (S. cerevisiae); GST followed by a TEV protease-cleavage site; source: purified recombinant; PEX7 was produced in P. pastoris as a fusion to an N-terminal GST tag; not shown: GST, N-terminal, kept
T3 sequence (looked up): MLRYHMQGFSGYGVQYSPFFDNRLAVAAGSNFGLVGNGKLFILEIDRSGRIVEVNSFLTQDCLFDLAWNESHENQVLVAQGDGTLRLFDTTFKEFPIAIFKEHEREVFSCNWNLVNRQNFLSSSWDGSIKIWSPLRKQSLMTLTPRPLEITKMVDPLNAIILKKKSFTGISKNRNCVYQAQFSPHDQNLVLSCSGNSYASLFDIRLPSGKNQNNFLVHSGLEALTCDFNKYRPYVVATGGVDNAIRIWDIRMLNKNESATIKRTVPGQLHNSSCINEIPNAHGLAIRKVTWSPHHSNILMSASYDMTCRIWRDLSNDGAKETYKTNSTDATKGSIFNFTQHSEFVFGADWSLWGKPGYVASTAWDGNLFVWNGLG

B1: GST-tagged wild-type yeast PEX39 (GST–PEX39), P47087 ΔRPWE (RPWE motif converted to alanine) (protein)
chain: MAAGGELSYEELLDHILNNKPIPNIVEVPNVTLDEGLASTPSLRPRPAAAAGQLQHQSHQGSLDKPNISLDIDQESLEGMTSLTRLSECYDIQSKLQINDSDNDNDDNNNDNNKGDGNDDDNNTVTANPTAR
Yeast PEX7, P39108
  other: Kobs (observed binding constant): 190 µM

B2: PEX39–GFP: PEX39 fused at the C terminus to a GSG linker and mEGFP (protein)
chain: MAAGGELSYEELLDHILNNKPIPNIVEVPNVTLDEGLASTPSLRPRPRPWEGQLQHQSHQGSLDKPNISLDIDQESLEGMTSLTRLSECYDIQSKLQINDSDNDNDDNNNDNNKGDGNDDDNNTVTANPTAR
modifications: left off: GST, N-terminal, cleaved | GFP, C-terminal, kept
notes: PEX39 fused at the C terminus to a GSG linker and mEGFP
[1]
  Entry into YG hydrogel: did not by itself enter the YG hydrogel

B3: wild-type yeast PEX39 (natural protein, UniProt P47087 1-132, looked up)
chain: MAAGGELSYEELLDHILNNKPIPNIVEVPNVTLDEGLASTPSLRPRPRPWEGQLQHQSHQGSLDKPNISLDIDQESLEGMTSLTRLSECYDIQSKLQINDSDNDNDDNNNDNNKGDGNDDDNNTVTANPTAR
notes: PEX39, yeast; also called WT; not shown: GST, N-terminal, cleaved
[2]
  binding result: binds

B4: yeast PEX39 fused at the C terminus to GFP (PEX39–GFP) (natural protein, UniProt P47087 1-132, looked up)
chain: MAAGGELSYEELLDHILNNKPIPNIVEVPNVTLDEGLASTPSLRPRPRPWEGQLQHQSHQGSLDKPNISLDIDQESLEGMTSLTRLSECYDIQSKLQINDSDNDNDDNNNDNNKGDGNDDDNNTVTANPTAR
notes: PEX39, yeast; not shown: GST, N-terminal, cleaved; GFP, C-terminal, kept
[3]
  binding result: binds
